Source: patent US20190330346A1 (REMD BIOTHERAPEUTICS, published 2019)

Target: T1, human PD-1 (human, UniProt Q15116 25-167)
T1 construct: The immunogen was PD1/Fc (Leu25-Gln167 fused to human IgG1 Pro100-Lys330); also called huPD-1; hPD-1
Assay: SPR, multiple-cycle, crude Fab from E. coli; antigen form not stated
Excerpt: A homology model of mouse anti-PD1 Fv was built wherein putative back mutation sites (i.e., buried residues of the frameworks that are different in the mouse and human acceptor sequences) were identified. There were a total of 14 putative back mutation sites. A variant humanized Fab comprising all 14 of the putative back mutation sites of PD1-grafted Ab mutated back to their mouse counterparts (hereinafter identified as “PD1-BM Ab”) comprising the heavy chain variable region sequence set forth in SEQ ID NO: 38 and the light chain variable region sequence set forth in SEQ ID NO: 39, was synthesized. In addition, 14 variants of PD1-BM Ab (hereinafter identified as Fabs 1-14), each having at least one of the putative 14 back mutation sites in PD1-BM Ab mutated back to the human counterpart, were synthesized. These constructs were used to transform E. coli TG1 strain. Single colonies were pick for each individual construct and grown in E. coli medium. Crude chimeric and humanized Fabs were collected and subjected to multiple-cycle affinity estimation by Surface Plasmon Resonance (SPR).

T1 sequence (Q15116 25-167 limits assumed): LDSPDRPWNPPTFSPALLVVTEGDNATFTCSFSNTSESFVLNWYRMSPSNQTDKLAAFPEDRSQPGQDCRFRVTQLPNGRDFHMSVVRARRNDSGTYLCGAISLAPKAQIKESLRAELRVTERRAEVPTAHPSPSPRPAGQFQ

| Binder | Kd | koff | kon |
| --- | --- | --- | --- |
| chimeric Fab (Fab, V domains shown, Crude murine-human chimeric Fab from E. coli TG1, made with the HCVR and LCVR of PD1#3; Only the variable domains are tied to it) VH: EVQLVESGGDLVKPGGSLKLSCAASGFVFSRYDMAWVRQTPEKRLEWVAFISGGGSNTYYPDTVKGRFTISRDNAKNTLYLQMTSLKSEDTAVYYCISPYYYAMEYWGQGTSVTVSS VL: DIVMTQSHKFISTSVGDRVSITCKASQDVDTAVAWYQQKPGQSPKLLIHWASTRHTGVPDRFTGGGSGTDFTLTLSNVQSEDLADYFCQQYSTFPWTFGGGTRLEIK | 0.5 nM | 0.00015 s⁻¹ | 300000 M⁻¹ s⁻¹ |
| Fab 1 (Fab, V domains shown, Crude Fab from E. coli; also called PD1-BM VH-T40A) VH: EVQLVESGGGLVQPGGSLRLSCAASGFVFSRYDMAWVRQAPGKGLEWVAFISGGGSNTYYPDTVKGRFTISRDNSKNTLYLQMNSLRAEDTAVYYCISPYYYAMEYWGQGTTVTVSS VL: DIQMTQSPSSISTSVGDRVTITCKASQDVDTAVAWYQQKPGKSPKLLIHWASTRHTGVPSRFSGSGSGTDFTLTLSSVQPEDLADYFCQQYSTFPWTFGGGTKLEIK | 0.32 nM | 9.8e-05 s⁻¹ | 310000 M⁻¹ s⁻¹ |
| Fab 3 (Fab, V domains shown, Crude Fab from E. coli; also called PD1-BM VH-I97A) VH: EVQLVESGGGLVQPGGSLRLSCAASGFVFSRYDMAWVRQTPGKGLEWVAFISGGGSNTYYPDTVKGRFTISRDNSKNTLYLQMNSLRAEDTAVYYCASPYYYAMEYWGQGTTVTVSS VL: DIQMTQSPSSISTSVGDRVTITCKASQDVDTAVAWYQQKPGKSPKLLIHWASTRHTGVPSRFSGSGSGTDFTLTLSSVQPEDLADYFCQQYSTFPWTFGGGTKLEIK | 1.1 nM | 0.00035 s⁻¹ | 320000 M⁻¹ s⁻¹ |
| Fab 10 (Fab, V domains shown, Crude Fab from E. coli; also called PD1-BM VL-V78L) VH: EVQLVESGGGLVQPGGSLRLSCAASGFVFSRYDMAWVRQTPGKGLEWVAFISGGGSNTYYPDTVKGRFTISRDNSKNTLYLQMNSLRAEDTAVYYCISPYYYAMEYWGQGTTVTVSS VL: DIQMTQSPSSISTSVGDRVTITCKASQDVDTAVAWYQQKPGKSPKLLIHWASTRHTGVPSRFSGSGSGTDFTLTLSSLQPEDLADYFCQQYSTFPWTFGGGTKLEIK | 0.29 nM | 9.1e-05 s⁻¹ | 320000 M⁻¹ s⁻¹ |
| Fab 12 (Fab, V domains shown, Crude Fab from E. coli; also called PD1-BM VL-D85T) VH: EVQLVESGGGLVQPGGSLRLSCAASGFVFSRYDMAWVRQTPGKGLEWVAFISGGGSNTYYPDTVKGRFTISRDNSKNTLYLQMNSLRAEDTAVYYCISPYYYAMEYWGQGTTVTVSS VL: DIQMTQSPSSISTSVGDRVTITCKASQDVDTAVAWYQQKPGKSPKLLIHWASTRHTGVPSRFSGSGSGTDFTLTLSSVQPEDLATYFCQQYSTFPWTFGGGTKLEIK | 0.28 nM | 9.4e-05 s⁻¹ | 330000 M⁻¹ s⁻¹ |
| Fab 8 (Fab, V domains shown, Crude Fab from E. coli; also called PD1-BM VL-H49Y) VH: EVQLVESGGGLVQPGGSLRLSCAASGFVFSRYDMAWVRQTPGKGLEWVAFISGGGSNTYYPDTVKGRFTISRDNSKNTLYLQMNSLRAEDTAVYYCISPYYYAMEYWGQGTTVTVSS VL: DIQMTQSPSSISTSVGDRVTITCKASQDVDTAVAWYQQKPGKSPKLLIYWASTRHTGVPSRFSGSGSGTDFTLTLSSVQPEDLADYFCQQYSTFPWTFGGGTKLEIK | 0.57 nM | 0.00019 s⁻¹ | 340000 M⁻¹ s⁻¹ |
| Fab 11 (Fab, V domains shown, Crude Fab from E. coli; also called PD1-BM VL-L83F) VH: EVQLVESGGGLVQPGGSLRLSCAASGFVFSRYDMAWVRQTPGKGLEWVAFISGGGSNTYYPDTVKGRFTISRDNSKNTLYLQMNSLRAEDTAVYYCISPYYYAMEYWGQGTTVTVSS VL: DIQMTQSPSSISTSVGDRVTITCKASQDVDTAVAWYQQKPGKSPKLLIHWASTRHTGVPSRFSGSGSGTDFTLTLSSVQPEDFADYFCQQYSTFPWTFGGGTKLEIK | 0.72 nM | 0.00022 s⁻¹ | 300000 M⁻¹ s⁻¹ |
| Fab 9 (Fab, V domains shown, Crude Fab from E. coli; also called PD1-BM VL-L75I) VH: EVQLVESGGGLVQPGGSLRLSCAASGFVFSRYDMAWVRQTPGKGLEWVAFISGGGSNTYYPDTVKGRFTISRDNSKNTLYLQMNSLRAEDTAVYYCISPYYYAMEYWGQGTTVTVSS VL: DIQMTQSPSSISTSVGDRVTITCKASQDVDTAVAWYQQKPGKSPKLLIHWASTRHTGVPSRFSGSGSGTDFTLTISSVQPEDLADYFCQQYSTFPWTFGGGTKLEIK | 0.24 nM | 8e-05 s⁻¹ | 330000 M⁻¹ s⁻¹ |
| Fab 5 (Fab, V domains shown, Crude Fab from E. coli; also called PD1-BM VL-I11V) VH: EVQLVESGGGLVQPGGSLRLSCAASGFVFSRYDMAWVRQTPGKGLEWVAFISGGGSNTYYPDTVKGRFTISRDNSKNTLYLQMNSLRAEDTAVYYCISPYYYAMEYWGQGTTVTVSS VL: DIQMTQSPSSVSTSVGDRVTITCKASQDVDTAVAWYQQKPGKSPKLLIHWASTRHTGVPSRFSGSGSGTDFTLTLSSVQPEDLADYFCQQYSTFPWTFGGGTKLEIK | 0.34 nM | 0.00013 s⁻¹ | 370000 M⁻¹ s⁻¹ |
| Fab 14 (Fab, V domains shown, Crude Fab from E. coli; also called PD1-BM VL-L104V) VH: EVQLVESGGGLVQPGGSLRLSCAASGFVFSRYDMAWVRQTPGKGLEWVAFISGGGSNTYYPDTVKGRFTISRDNSKNTLYLQMNSLRAEDTAVYYCISPYYYAMEYWGQGTTVTVSS VL: DIQMTQSPSSISTSVGDRVTITCKASQDVDTAVAWYQQKPGKSPKLLIHWASTRHTGVPSRFSGSGSGTDFTLTLSSVQPEDLADYFCQQYSTFPWTFGGGTKVEIK | 0.68 nM | 0.0002 s⁻¹ | 300000 M⁻¹ s⁻¹ |
| Fab 6 (Fab, V domains shown, Crude Fab from E. coli; also called PD1-BM VL-T13A) VH: EVQLVESGGGLVQPGGSLRLSCAASGFVFSRYDMAWVRQTPGKGLEWVAFISGGGSNTYYPDTVKGRFTISRDNSKNTLYLQMNSLRAEDTAVYYCISPYYYAMEYWGQGTTVTVSS VL: DIQMTQSPSSISASVGDRVTITCKASQDVDTAVAWYQQKPGKSPKLLIHWASTRHTGVPSRFSGSGSGTDFTLTLSSVQPEDLADYFCQQYSTFPWTFGGGTKLEIK | 0.25 nM | 9.6e-05 s⁻¹ | 380000 M⁻¹ s⁻¹ |
| Fab 13 (Fab, V domains shown, Crude Fab from E. coli; also called PD1-BM VL-F87Y) VH: EVQLVESGGGLVQPGGSLRLSCAASGFVFSRYDMAWVRQTPGKGLEWVAFISGGGSNTYYPDTVKGRFTISRDNSKNTLYLQMNSLRAEDTAVYYCISPYYYAMEYWGQGTTVTVSS VL: DIQMTQSPSSISTSVGDRVTITCKASQDVDTAVAWYQQKPGKSPKLLIHWASTRHTGVPSRFSGSGSGTDFTLTLSSVQPEDLADYYCQQYSTFPWTFGGGTKLEIK | 0.29 nM | 0.0001 s⁻¹ | 350000 M⁻¹ s⁻¹ |
| Fab 7 (Fab, V domains shown, Crude Fab from E. coli; also called PD1-BM VL-S43A) VH: EVQLVESGGGLVQPGGSLRLSCAASGFVFSRYDMAWVRQTPGKGLEWVAFISGGGSNTYYPDTVKGRFTISRDNSKNTLYLQMNSLRAEDTAVYYCISPYYYAMEYWGQGTTVTVSS VL: DIQMTQSPSSISTSVGDRVTITCKASQDVDTAVAWYQQKPGKAPKLLIHWASTRHTGVPSRFSGSGSGTDFTLTLSSVQPEDLADYFCQQYSTFPWTFGGGTKLEIK | 0.59 nM | 0.00016 s⁻¹ | 270000 M⁻¹ s⁻¹ |

Target: T2, His-tagged human PD-1 protein (human, UniProt Q15116 25-170, limits assumed)
T2 construct: SPR analyte; also called his-tagged antigen PD-1; not shown: His tag
Assay: SPR; Fab-SASA captured on immobilised BSA, his-tagged PD-1 as analyte
Protocol: For affinity ranking, BSA was immobilized onto the sensor chip using amine coupling method. The selected Fab-SASA secreted to the culture medium was injected and captured by BSA through the tight binding between BSA and SASA (capture phase). After equilibration, his-tagged antigen PD-1 was injected for 300 seconds (association phase) followed by the injection of running buffer for 900 seconds (dissociation phase). The surface was regenerated before the injection of another three Fab-SASA clones. The process was repeated until all selected Fab-SASA proteins were analyzed. Responses of reference flow cell were subtracted from those of Fab-SASA flow cells during each cycle. The antibodies were ranked by their dissociation rate constants (off-rates, […]). […]

T2 sequence (Q15116 25-170 limits assumed): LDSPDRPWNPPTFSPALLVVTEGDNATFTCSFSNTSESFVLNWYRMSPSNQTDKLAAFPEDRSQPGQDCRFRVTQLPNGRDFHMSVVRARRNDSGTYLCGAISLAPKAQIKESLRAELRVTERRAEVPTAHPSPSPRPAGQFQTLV

| Binder | Kd | koff | kon |
| --- | --- | --- | --- |
| AS05616 (Fab, V domains shown, Humanized Fab-SASA clone from the phage library) VH: EVQLVESGGGLVQPGGSLRLSCAASGFVFSRYDMAWVRQTPGKGLEWVSFISGGGSNTYYPDTVKGRFTISRDNSKNTLYLQMNSLRAEDTAVYYCISPYYYAMEYWGQGTTVTVSS VL: DIQMTQSPSSISTSVGDRVTITCKASQDVDTAVAWYQQKPGKSPKLLIHWASTRHTGVPSRFSGSGSGTDFTLTISSLQPEDFADYFCQQYSTFPWTFGGGTKVEIK | 0.311 nM | 0.000105 s⁻¹ | 336000 M⁻¹ s⁻¹ |
| AS05617 (Fab) (Fab, V domains shown, Humanized Fab-SASA clone from the phage library) VH: EVQLVESGGGLVQPGGSLRLSCAASGFVFSRYDMAWVRQTPGKGLEWVSFISGGGSNTYYPDTVKGRFTISRDNSKNTLYLQMNSLRAEDTAVYYCISPYYYAMEYWGQGTTVTVSS VL: DIQMTQSPSSISTSVGDRVTITCKASQDVDTAVAWYQQKPGKSPKLLIYWASTRHTGVPSRFSGSGSGTDFTLTISSLQPEDFADYFCQQYSTFPWTFGGGTKVEIK | 0.0854 nM | 3e-05 s⁻¹ | 351000 M⁻¹ s⁻¹ |
| AS05618 (Fab, V domains shown, Humanized Fab-SASA clone from the phage library) VH: EVQLVESGGGLVQPGGSLRLSCAASGFVFSRYDMAWVRQTPGKGLEWVSFISGGGSNTYYPDTVKGRFTISRDNSKNTLYLQMNSLRAEDTAVYYCISPYYYAMEYWGQGTTVTVSS VL: DIQMTQSPSSISTSVGDRVTITCKASQDVDTAVAWYQQKPGKSPKLLIHWASTRHTGVPSRFSGSGSGTDFTLTISSLQPEDFADYFCQQYSTFPWTFGGGTKLEIK | 0.41 nM | 0.000151 s⁻¹ | 369000 M⁻¹ s⁻¹ |
| AS05614 (Fab, V domains shown, Humanized Fab-SASA clone from the phage library) VH: EVQLVESGGGLVQPGGSLRLSCAASGFVFSRYDMAWVRQTPGKGLEWVSFISGGGSNTYYPDTVKGRFTISRDNSKNTLYLQMNSLRAEDTAVYYCISPYYYAMEYWGQGTTVTVSS VL: DIQMTQSPSSISTSVGDRVTITCKASQDVDTAVAWYQQKPGKSPKLLIHWASTRHTGVPSRFSGSGSGTDFTLTLSSVQPEDFATYFCQQYSTFPWTFGGGTKVEIK | 0.37 nM | 0.000134 s⁻¹ | 363000 M⁻¹ s⁻¹ |
